From the supplement of paper PMC10567573
± gives the standard deviation.

Assay: protein stability index of a GFP-peptide fusion (GPS, HEK-293T) (PSI 1-6); higher = more stable
Conditions: c terminus: a fixed tail appended
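Note: 24-mer peptide tiles fused after GFP, lentivirally expressed, FACS-sorted into six equal bins by GFP/DsRed ratio, decoded by Illumina sequencing, PSI is the read-weighted mean bin number.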

| Sequence | protein stability index (treatment: DMSO) | protein stability index (treatment: MLN4924 1 uM, 8 h) |
| --- | --- | --- |
| STKAIPEKYGAVREVILKELAEAT [ZBED1] | 3.88 ± 0.32 | 4.08 ± 0.35 |
| AMVLELLGPSLEDLFDLCDRTFTL [CSNK1G1] | 2.52 ± 1.4 | 1.53 ± 0.14 |
| MVDIIFHYPFLGAMGDHSKKKPGT [ISL2] | 2.34 ± 0.28 | 2.38 ± 0.61 |
| ICEQAEYHMFQREKVEVQLPELFH [KCNAB2] | 3.17 ± 0.24 | 3.06 ± 0.29 |
| EMHTSRDHSSQSEEEVVEGEKEVE [BNIP3L] | 5.682 ± 0.045 | 5.59 ± 0.16 |
| VVLCEGVKWLSFHSGYDFGYLIKI [CNOT7] | 2.87 ± 0.36 | 3.09 ± 1.2 |
| INRTFFFDVHPPLGKMLIGLAGYL [POMT2] | 3.07 ± 0.57 | 2.6 ± 0.59 |
| KFGVVQTSVEECSQKGCLALSLLE [CLCN6] | 2.81 ± 0.071 | 2.99 ± 0.22 |
| VQSLCAKHGIEYQSKPLLSAFADI [FADS1] | 2.31 ± 0.3 | 2.32 ± 0.26 |
| MIMLKDRRMTVVGRLEGLIQPDDL [FAF2] | 2.34 ± 0.25 | 2.56 ± 0.29 |
| YIFRVANHQKDLFRRTDGRCLIWG [DHCR7] | 2.77 ± 0.23 | 2.35 ± 0.41 |
| KELDENVEYEERESEFDIEDEDKS [RBBP5] | 5.65 ± 0.23 | 5.62 ± 0.32 |
| RILGLDQKKDCVPLMKPHRPWADT [HESX1] | 2.34 ± 0.17 | 2.36 ± 0.24 |
| LGRPDSLELQRQREARKRALARKQ [RSPH3] | 4.6 ± 0.17 | 4.43 ± 0.19 |
| LSAFYLSYFDMLYPEDSSWAAKAP [SPDEF] | 2.63 ± 0.59 | 2.48 ± 0.52 |
| INVYGNTALHIACYNGQDAVVNEL [ANKRD44] | 2.06 ± 0.16 | 2.23 ± 0.16 |
| YLNFIRGVVDSEDLPLNISREMLQ [HSP90AB1] | 2.69 ± 0.12 | 3.09 ± 0.47 |
| LSMNWAIVADILLYVVIPTRRSTA [SPNS1] | 2.63 ± 0.62 | 3.01 ± 0.77 |
| FVDILESDLKDDDAVPPGMESLIS [CDC25B] | 3.55 ± 0.64 | 3.94 ± 0.43 |
| SLLGLLSFPRNNISYLVLSMISMG [JAGN1] | 3.11 ± 0.33 | 3.01 ± 0.71 |
| TWRDPQDEVPGSQGSQASQAPPVP [NR2F2] | 5.18 ± 0.19 | 5.16 ± 0.23 |
| LARGPLNQTALHLAAAHGHSEVVE [RIPK4] | 4.36 ± 0.18 | 4.55 ± 0.19 |

| Sequence | protein stability index (treatment: DMSO) | protein stability index (treatment: MLN4924 1 uM, 8 h) |
| --- | --- | --- |
| ASGVGFILGPVVGGYLTELEDGFY [MFSD9] | 2.05 ± 0.62 | 2.17 ± 0.23 |
| YILLVGYPPFWDEDQHKLYQQIKA [CAMK2B] | 2.49 ± 0.57 | 2.82 ± 0.56 |
| HVRHMAYQLCHALRFLHENQLTHT [CLK3] | 3.06 ± 0.3 | 3.01 ± 0.38 |
| PRLFKEWNITKLSIEYDSEPFGKE [CRY1] | 3.06 ± 0.33 | 3.46 ± 0.39 |
| TKEKKHQCDHCERCFYTRKDVRRH [PLAGL1] | 3.69 ± 0.48 | 4.2 ± 0.5 |
| SQFLKHQQTHNIEKAHECTDCGKA [ZNF649] | 4.88 ± 0.26 | 4.985 ± 0.041 |
| VEDLVDSLKLALLFYILTFVGAIF [RTN2] | 2.8 ± 0.35 | 2.48 ± 0.55 |
| KNRPAMNYDKLSRSIRQYYKKGII [SPDEF] | 2.46 ± 0.3 | 2.42 ± 0.48 |
| VGGTIRTCQKFLIQYNRRQLLILL [POP5] | 2.96 ± 0.47 | 2.64 ± 0.67 |
| ETIEGAPPLWAASAAGHLKVVQSL [FEM1C] | 3.11 ± 0.2 | 3.04 ± 0.46 |
| AVYFAEAEEAESHFSSIPDAFWWA [KCNA1] | 2.27 ± 0.4 | 2.53 ± 0.42 |
| GYSWSMGAYKSSTICYCPEKGTWT [KLHL14] | 2.03 ± 0.26 | 2.08 ± 0.34 |
| PSPPTSPPWGLGPGAGDPAPGIGP [MYCL] | 4.7 ± 0.18 | 4.72 ± 0.069 |
| LHVKRSMGWKKACDELELHQRFLR [ZMYND11] | 2.31 ± 0.12 | 2.55 ± 0.45 |
| LRKGFSCVKNELLPSHPLELSEKN [POMP] | 3.61 ± 0.094 | 3.75 ± 0.24 |
| AVYLMTFLIVTVAWAAHTRLFQVV [TMEM175] | 3.17 ± 0.097 | 3.18 ± 0.2 |
| TVPDEFTVEERQTGMWWRHLVAGG [SLC25A25] | 2.77 ± 0.19 | 3 ± 0.14 |
| DTMRQINKKGFWSYGPVILVVLVV [TOR1AIP2] | 2.49 ± 0.48 | 2.42 ± 0.37 |
| DGQYMGVAFRGLKGKKLYPVVSAV [SPSB1] | 2.36 ± 0.55 | 2.12 ± 0.48 |
| EEHTTILRPSYTGLSSSSARFLSR [CDC14A] | 3.57 ± 0.12 | 3.7 ± 0.19 |
| FWLGNEALHSLTQAGDYSMRVDLR [TNXB] | 2.19 ± 0.71 | 2.44 ± 0.14 |
| RLCTWLLALSPDLSLSNATVLTRS [FANCE] | 2.92 ± 0.47 | 3.02 ± 1 |
